Assay results reported in patent US9181310B2 (priority 2003, dated 2015).
Entries after “also recorded” stand apart in the source; their conditions may differ. Read-outs that look alike come from different tables or passages of the source. No end group written: not given here.

Columns and labels:
[1] = incubated with intercellular plant fluid of potato; cited from earlier work
[2] = incubated with intercellular plant fluid of rice; cited from earlier work
E. coli ER2566 [3] = assay type: cell-based
E. coli ER2566 [4] = assay type: cell-based; settings: for bacterial stasis induced by expression: berberine chloride 250 ug/ml, 0.25 mM IPTG, 20 hrs of induction
[5] = tested on: X. pelargonii strain CHSC; settings: in vivo
R. solanacearum = assay type: in vivo; settings: sweet pepper leaves, transient expression from pIPG780, 48 hrs after challenge
X. pelargonii = settings: in vivo
[6] = tested on: X. pelargonii strain CHSC; assay: Pathogen challenge of transgenic geranium; assay type: in vivo
Protocol: Following inoculation, plants were held at 32° C. The circled region was cut out, and contained ca. 10^5 cfu/cm^2 live X. pelargonii cells (for details, refer Example 11 below). Photo taken four weeks after inoculation.
Following inoculation, plants were held at 32° C. […] Photo taken four weeks after inoculation.
Cell counts were taken daily for nine days by removing circular sections totaling 1 square centimeter (cm^2) using a cork borer from three inoculated leaves in the area most likely to contain pathogen cells (refer FIGS. 1 and 2). These leaf sections were macerated with a mortar and pestle and 1 milliliter of buffer, diluted using a 1:10 dilution series and 10 microliter drops placed on solid growth medium for counting. […] These plants were both immune to X. pelargonii infection, and rapidly brought the artificially inoculated pathogen population to extinction.
Inoculations were performed using liquid culture grown X. pelargonii cells, sprayed on the leaves at a concentration of 10^7 colony forming units per milliliter (cfu/ml) each. X. pelargonii was also inoculated using scissors dipped in 10^9 cfu/ml of cells to clip the leaves in several places on the same plants that were sprayed. Following X. pelargonii inoculation, plants were held at 32° C. to encourage pathogen growth and symptom development. Four weeks after inoculation, photographs were taken of both nontransgenic geranium variety “Avenida” inoculated with X. pelargonii (FIG. 1) and transgenic geranium of the same variety “Avenida” expressing BombBC inoculated with X. pelargonii (FIG. 2), and circular sections totaling 1 square centimeter (cm^2) were removed using a cork borer from three inoculated leaves in the area most likely to contain pathogen cells (refer FIGS. 1 and 2). Consistently, 10^5 cfu/ml of X. pelargonii was recovered from nontransgenic geranium variety “Avenida” plants at four weeks after inoculation (FIG. 3), and symptoms progressed systemically until the entire plant was dead, usually by 12 weeks after inoculation. […] These plants were immune to X. pelargonii infection.

[7] = tested on: R. solanacearum strain Rsp673; assay type: in vivo; settings: transgenic geranium Avenida
[8] = tested on: R. solanacearum strain Rsp446; assay type: in vivo; settings: after 68 days
[9] = tested on: Ca. Liberibacter asiaticus; assay type: in vivo; settings: transgenic tobacco Xanthi, same on retest three weeks later
[10] = tested on: purified LPS extracted from X. campestris pv. pelargonii, X. citri, Rhizobium leguminosarum and Ralstonia solanacearum; assay type: biochemical; settings: 5 ug purified protein, room temperature, 2 hours
[11] = tested on: LPS of X. campestris pv. pelargonii, X. citri, Rhizobium leguminosarum and Ralstonia solanacearum; assay type: binding; settings: treated LPS lanes, Western blot
[12] = tested on: rice (Oryza sativa japonica) cv. TP309; assay: Stable transformation of rice, effect on the plant; settings: stable transformation with pIPG787
[13] = tested on: Nicotiana tabaccum cv. Xanthi; assay: Stable transformation of tobacco, effect on the plant; settings: stable transformation with pIPG786
[14] = tested on: geranium (Pelargonium X hortorum) cv. Avenida; assay: Stable transformation of geranium, effect on the plant; settings: stable transformation with pIPG787
[15] = tested on: E. coli strains ADA410 P3rpoH::lacZ reporter (LPS or outer membrane damage); assay: P3rpoH::lacZ reporter, purified protein droplets on ADA410 cells on X-gal agar; settings: ten microliter droplets of purified protein, 24 hr
[16] = Exp. 1, cutting (T0), inoculum 5 × 10^7 cfu/ml
[17] = Exp. 2, cutting (T0), inoculum 1 × 10^8 cfu/ml

cecropin B: linear lytic peptide rapidly degraded by plant proteases (KWKVFKKIEKMGRNIRNGIVKAGPAIAVLGEAKAL; ends and bridges not checked; UniProt P01508 27-61, looked up)
half-life [1]: about three | half-life [2]: about 25 hours

B1: BombOrfL: Phage 15 ORF L from Xanthomonas campestris pv. pelargonii, SEQ ID No. 15 (protein, listed as Xanthomonas campestris)
chain: MPTVDATPGSITANSYVTVAEANSYFDGSYGRPLWTSASEDEKASLVISASRYLDQMMAWIGAPTNPEQSMWWPCKNAVIGGMTLSQVSIPVKVKIAVFELAYFMLESGAALSFADQTIDSVKVGTIRVEFTKNSTDAGLPTFVEAMLSGFGSPVLYGSNAARSIDLVRA
activity of expression clone (growth in presence of berberine chloride) (E. coli ER2566 [3]): Active

B2: D1: BombBC deletion, aa26-169 of BC, SEQ ID 6 (protein)
chain: MPIAVVALARFGSQSTTTTKAAADALGTTVGKIDDIRKNRNFAYVTADFKPTEAQKADGIEWLKRHPVGADALIEELQNLPVATAEESAAFEQVRASARGQNAKTAEGEVAQAGGGNRRKKKEKPAEAGEVQNPPAADGDSLLS
modifications: mutant D1 predicted amino acid sequence
bacterial stasis induced by expression (E. coli ER2566 [4]): clearly induced | activity of expression clone (growth in presence of berberine chloride) (E. coli ER2566 [4]; berberine chloride (5 micrograms/ml), 20 h after induction): Active

B3: BombBC: Bacteriophage Outer Membrane Breaching protein of Xanthomonas phage P15 (Xp15) ORF BC, 17.9 kD, SEQ ID NO. 17 (protein, listed as Xanthomonas campestris)
chain: MSDQTDTTQTTPAEKAPPKEIIRGRMPIAVVALARFGSQSTTTTKAAADALGTTVGKIDDIRKNRNFAYVTADFKPTEAQKADGIEWLKRHPVGADALIEELQNLPVATAEESAAFEQVRASARGQNAKTAEGEVAQAGGGNRRKKKEKPAEAGEVQNPPAADGDSLLS
HR symptoms elicited by X. pelargonii [5]: abolished | HR symptoms elicited by R. solanacearum (R. solanacearum): abolished | drop in the number of colony forming units vs. control leaves (X. pelargonii): 100 × | pathogenic symptoms caused by X. pelargonii (X. pelargonii): greatly reduced | resistance status to X. pelargonii infection ([6]; transgenic geranium Avenida): immune | X. pelargonii cells in cut out leaf region ([6]; transgenic geranium Avenida leaf, four weeks after inoculation): no detected X. pelargonii cells | symptoms of geranium blight ([6]; transgenic geranium Avenida, 32° C.): no evidence of symptoms | living X. pelargonii cells recovered ([6]; transgenic geranium Avenida, after five days following inoculation): no living X. pelargonii cells were recovered | symptom development of bacterial wilt ([7]; syringe infiltration and soil inoculation, 32° C.): failed to progress past the leaf area where the pathogen was directly infiltrated; also recorded: No symptom development, other than that which initially developed in, and stayed restricted to, the region of inoculation | detected R. solanacearum cells ([7]; twelve weeks after inoculation): no detected R. solanacearum cells | number of survivors/total tested [8, 16]: 10/15 | per cent survivors [8, 16]: (63%) | number of survivors/total tested [8, 17]: 9/20 | per cent survivors [8, 17]: (45%) | number of survivors/total tested ([8]; Exp. 3, seeded (T1), inoculum 2 × 10^8 cfu/ml): 0/21 | plants symptomatic for greening ([9]; 4 weeks connected to dodder): neither of the two | plants PCR positive for greening ([9]; nested PCR): neither were PCR positive | bacterial stasis induced by expression (E. coli ER2566 [4]): clearly induced | activity of expression clone (growth in presence of berberine chloride) (E. coli ER2566 [3]): Active | degradation of LPS [10]: enzymatically degrades LPS | attachment to LPS [11]: attached to the degraded LPS of all species tested | detrimental effect on rice plants [12]: not detrimental | detrimental effect on tobacco plants [13]: not detrimental | detrimental effect on geranium plants [14]: not detrimental | blue color around ADA410 cells (P3rpoH::lacZ activation) [15]: Blue color slowly developed and intensified

B4: BombORF35PA: Phage PhiKMV ORF 35 from Pseudomonas aeruginosa, SEQ ID No. 9 (protein, listed as Pseudomonas aeruginosa)
chain: MAFWLPLLAAGGMSALQQGLANKEERNKIKAENKARLKTDLDNLGAAARDIANLGVMAASYRKQAVASQVEAKRQGMLAGGSAEAQAGAFGVKGASVDAVALDIEREVGEALIQIDDNLDNQMWNLAEQAHSIQAQAKAGLLGQKSTTAGQRSPLVAGLMSAGSLYASQYFKFGATPKGGN
activity of expression clone (growth in presence of berberine chloride) (E. coli ER2566 [3]): Active

B5: BombOrf9: Phage 13 ORF 9 from Xanthomonas campestris pv. pelargonii, SEQ ID No. 13 (protein, listed as Xanthomonas campestris)
chain: MVVVAQGTVPAKVHPQLTNLTALFADAVGLFLDVSDKVADLLVRFADVEAQGAELLLDLAHLAVPASVVHPTHAGQDQTVPAASDILHGVLEGQPVALVVNQRALRAAQLNPLLALRLDVEAVADQDAEGGAVAHAHAGDQLAVEQKLQILLERFGHDALAGHRRVEPIAYLVDVRSWEAGALDADQPRDDTADGDDAHAQRFVRHVERDGFGSGVLHPSQVRQRLAVLVDDFVEGSRVALDDRANHGEVGVDRVHQ
activity of expression clone (growth in presence of berberine chloride) (E. coli ER2566 [3]): Active | relative strength of activity in E. coli (E. coli ER2566 [3]): Weak activity
